This note sets out measurements from the supplement of paper PMC7877785.

± gives the uncertainty stated by the source.

The series is described as follows: self-splicing fitness, log relative to wild type (ln ratio); higher = more splicing; Tetrahymena group I intron in knt gene, E. coli kanamycin selection, DiMSum; sequences stand for … in CUCUCU…GGAGGGAAAAGUUAUCAGGCAUGCACCUGGUAGCUAGUCUUUAAACCAAUAGAUUGCAUCGGUUUAAAAGGCAAGACCGUCAAAUUGCGGGAAAGGGGUCAACAGCCGUUCAGUACCAAGUCUCAGGGGAAACUUUGAGAUGGCCUUGCAAAGGGUAUGGUAAUAAGCUGACGGACAUGGUCCUAACCACGCAGCCAAGUCCUAAGUCAACAGAUCUUCUGUUGAUAUGGAUGCAGUUCACAGACUAAAUGUCGGUCGGGGAAGAUGUAUUCUUCUCAUAAGAUAUAGUCGGACCUCUCCUUAAUGGGAGCUAGCGGAUGAAGUGAUGCAACACUGGAGCCGCUGGGAACUAAUUUGUAUGCGAAAGUAUAUUGAUUAGUUUUGGAGUACUCGUGGUCG
In short, it runs like this: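 Library with all eight P1ex-region intron nucleotides randomised, intron inside the knt kanamycin-resistance gene on pET-22b(+), in E. coli BL21(DE3). Cells grew overnight at 37°C or 30°C on LB agar with or without 25 μg/mL kanamycin (plus 100 μg/mL carbenicillin, 50 μM IPTG, 0.2% rhamnose), in six replicate transformations. Pooled colonies were amplicon-sequenced on Illumina HiSeq 2500. DiMSum fitness is the error-weighted combination of wild-type-normalised replicate fold changes, kanamycin versus none.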

As for GUGCAGCAAUAUUACGUCUU, the “self-splicing fitness (ln)” value reads like this: (30 °C) -1.33 ± 0.083; (37 °C) -0.0365 ± 0.11.
The matching figures for GUGCAGCAAUAUUACGUGGA: -3.24 ± 0.28 and -2.24 ± 0.19.
In the case of GUGCAGCAAUAUUACGUGUC, the “self-splicing fitness (ln)” value was -2.72 ± 0.16 (30 °C) and -2.48 ± 0.25 (37 °C).
In the case of GUGGAGCAAUAUUACGAAGU, the “self-splicing fitness (ln)” value is, setting by setting: (30 °C) -2.01 ± 0.28; (37 °C) -1.66 ± 0.39.
Take GUGGAGCAAUAUUACGAAUU: for the setting “37 °C”, the “self-splicing fitness (ln)” value was -3.14 ± 0.47.
With GUGGAGCAAUAUUACGACAA, the “self-splicing fitness (ln)” value was -1.83 ± 0.24 (30 °C) and -1.38 ± 0.25 (37 °C).
The matching figures for GUGGAGCAAUAUUACGACUC: -3.19 ± 0.45 and -1.47 ± 0.44.
The like results for GUGGAGCAAUAUUACGAGGA were, in that order, -3.96 ± 0.31 and -1.75 ± 0.19.
As to GUGGAGCAAUAUUACGAGGC, the “self-splicing fitness (ln)” value (37 °C) was -1.03 ± 0.5.
With GUGGAGCAAUAUUACGAUGC, the “self-splicing fitness (ln)” value is, setting by setting: (30 °C) -1.96 ± 0.15; (37 °C) -1.03 ± 0.16.
The matching figures for GUGGAGCAAUAUUACGAUGU: -2.4 ± 0.23 and -0.928 ± 0.29.
The matching figures for GUGGAGCAAUAUUACGCACG: -2.63 ± 0.29 and -2.32 ± 0.25.
The matching figures for GUGGAGCAAUAUUACGCGCA: -1.48 ± 0.43 and -1.47 ± 0.35.
Consider GUGGAGCAAUAUUACGGAAA, for which the “self-splicing fitness (ln)” value (30 °C) is -1.87 ± 0.46.
Take GUGGAGCAAUAUUACGGGAC: under “30 °C”, the “self-splicing fitness (ln)” value is -2.17 ± 0.29.
For the sequence GUGGAGCAAUAUUACGGUGG, the “self-splicing fitness (ln)” value by setting is: (30 °C) -3.76 ± 0.23; (37 °C) -2.5 ± 0.23.
The like results for GUGGAGCAAUAUUACGGUGU were, in that order, -2.5 ± 0.17 and -1.78 ± 0.22.
The like results for GUGGAGCAAUAUUACGGUUU were, in that order, -3.22 ± 0.14 and -1.65 ± 0.15.
GUGGAGCAAUAUUACGUCGC: under “37 °C”, the “self-splicing fitness (ln)” value is -1.71 ± 0.42.
As to GUGGAGCAAUAUUACGUCUU, the “self-splicing fitness (ln)” value (30 °C) is -2.36 ± 0.24 and the “self-splicing fitness (ln)” value (37 °C) was -2.36 ± 0.36.
The matching figures for GUGGAGCAAUAUUACGUUCU: -4.21 ± 0.26 and -2.38 ± 0.18.
The like results for GUGUAGCAAUAUUACGAGAU were, in that order, -2.83 ± 0.26 and -1.23 ± 0.22.
Take GUGUAGCAAUAUUACGAUGC: the “self-splicing fitness (ln)” value was -1.85 ± 0.16 (30 °C) and -0.552 ± 0.18 (37 °C).
As for GUGUAGCAAUAUUACGCGCG, the “self-splicing fitness (ln)” value by setting is: (30 °C) -2.48 ± 0.36; (37 °C) -2.62 ± 0.38.
The matching figures for GUGUAGCAAUAUUACGCGUA: -1.82 ± 0.26 and -0.729 ± 0.17.
The like results for GUGUAGCAAUAUUACGCUGA were, in that order, -1.22 ± 0.18 and -1.58 ± 0.17.
The matching figures for GUGUAGCAAUAUUACGGCGU: -1.42 ± 0.11 and -1.04 ± 0.12.
As to GUGUAGCAAUAUUACGGGAU, the “self-splicing fitness (ln)” value was -2.93 ± 0.17 (30 °C) and -2.18 ± 0.2 (37 °C).
The matching figures for GUGUAGCAAUAUUACGGGCC: -1.6 ± 0.23 and -1.85 ± 0.48.
Turning to GUGUAGCAAUAUUACGGGUA, the “self-splicing fitness (ln)” value was -2.39 ± 0.2 (30 °C) and -2.42 ± 0.16 (37 °C).
The matching figures for GUGUAGCAAUAUUACGUGAC: -1.35 ± 0.11 and -1.29 ± 0.19.
Turning to GUGUAGCAAUAUUACGUGGC, under “30 °C”, the “self-splicing fitness (ln)” value is -1.72 ± 0.18.
For GUUAAGCAAUAUUACGAACA, the “self-splicing fitness (ln)” value was -2.16 ± 0.29 (30 °C) and -1.32 ± 0.21 (37 °C).
The matching figures for GUUAAGCAAUAUUACGACGC: -1.05 ± 0.24 and -0.36 ± 0.21.
The like results for GUUAAGCAAUAUUACGAGCA were, in that order, -1.9 ± 0.12 and -0.552 ± 0.11.
The like results for GUUAAGCAAUAUUACGAGCU were, in that order, -1.76 ± 0.13 and -1.08 ± 0.15.
Regarding GUUAAGCAAUAUUACGAGGA, the “self-splicing fitness (ln)” value is, setting by setting: (30 °C) -1.5 ± 0.23; (37 °C) -1.15 ± 0.39.
The like results for GUUAAGCAAUAUUACGAGUC were, in that order, -3.05 ± 0.12 and -1.86 ± 0.15.
The like results for GUUAAGCAAUAUUACGAUGU were, in that order, -1.16 ± 0.088 and 0.226 ± 0.13.
For the sequence GUUAAGCAAUAUUACGAUUA, the “self-splicing fitness (ln)” value (30 °C) is -1.04 ± 0.13 and the “self-splicing fitness (ln)” value (37 °C) was -0.324 ± 0.11.
The matching figures for GUUAAGCAAUAUUACGAUUU: -0.759 ± 0.09 and -0.00651 ± 0.14.
The matching figures for GUUAAGCAAUAUUACGCAAG: -1.84 ± 0.18 and -1.71 ± 0.23.
The matching figures for GUUAAGCAAUAUUACGCAUG: -1.11 ± 0.083 and -0.624 ± 0.11.
On to GUUAAGCAAUAUUACGCAUU, for which the “self-splicing fitness (ln)” value is, setting by setting: (30 °C) -2.16 ± 0.18; (37 °C) -1.1 ± 0.16.
The matching figures for GUUAAGCAAUAUUACGCCCG: -0.342 ± 0.39 and -1.05 ± 0.45.
The like results for GUUAAGCAAUAUUACGCGCC were, in that order, -2.44 ± 0.2 and -1.56 ± 0.16.
The matching figures for GUUAAGCAAUAUUACGCGCU: -2 ± 0.16 and -1.63 ± 0.2.
On to GUUAAGCAAUAUUACGCGGG, for which the “self-splicing fitness (ln)” value by setting is: (30 °C) -2.2 ± 0.12; (37 °C) -1.69 ± 0.16.
The like results for GUUAAGCAAUAUUACGGAAG were, in that order, -3.2 ± 0.19 and -1.6 ± 0.2.
The matching figures for GUUAAGCAAUAUUACGGCGG: -2.8 ± 0.21 and -2.29 ± 0.33.
Take GUUAAGCAAUAUUACGUAUC: the “self-splicing fitness (ln)” value is -1.79 ± 0.1 (30 °C) and -1.46 ± 0.14 (37 °C).
The like results for GUUAAGCAAUAUUACGUAUU were, in that order, -3.27 ± 0.19 and -0.277 ± 0.16.
The like results for GUUAAGCAAUAUUACGUCGA were, in that order, -1.79 ± 0.11 and -1.02 ± 0.11.
GUUAAGCAAUAUUACGUGAU: the “self-splicing fitness (ln)” value is, setting by setting: (30 °C) -1.94 ± 0.067; (37 °C) -1.44 ± 0.082.
The like results for GUUAAGCAAUAUUACGUGCC were, in that order, -1.39 ± 0.25 and -0.253 ± 0.36.
As for GUUAAGCAAUAUUACGUGCG, the “self-splicing fitness (ln)” value (30 °C) is -0.344 ± 0.12 and the “self-splicing fitness (ln)” value (37 °C) is -1.15 ± 0.12.
With GUUAAGCAAUAUUACGUGGA, the “self-splicing fitness (ln)” value by setting is: (30 °C) -2.84 ± 0.15; (37 °C) -2.31 ± 0.15.
The like results for GUUAAGCAAUAUUACGUGGG were, in that order, -2.87 ± 0.13 and -2.65 ± 0.17.
The matching figures for GUUAAGCAAUAUUACGUGUC: -2.09 ± 0.089 and -0.788 ± 0.11.
The like results for GUUAAGCAAUAUUACGUUCU were, in that order, -1.03 ± 0.085 and -0.445 ± 0.091.
Turning to GUUAAGCAAUAUUACGUUGG, the “self-splicing fitness (ln)” value by setting is: (30 °C) -2.45 ± 0.14; (37 °C) -1.19 ± 0.15.
The like results for GUUCAGCAAUAUUACGAACU were, in that order, -3.89 ± 0.14 and -2.56 ± 0.16.
The matching figures for GUUCAGCAAUAUUACGACCU: 0.353 ± 0.16 and 0.115 ± 0.17.
Turning to GUUCAGCAAUAUUACGACUU, the “self-splicing fitness (ln)” value (30 °C) is -0.0631 ± 0.073 and the “self-splicing fitness (ln)” value (37 °C) is -0.409 ± 0.079.
Turning to GUUCAGCAAUAUUACGAGCA, the “self-splicing fitness (ln)” value (37 °C) is -1.75 ± 0.3.
Consider GUUCAGCAAUAUUACGAUAC, for which the “self-splicing fitness (ln)” value (30 °C) is -0.948 ± 0.078 and the “self-splicing fitness (ln)” value (37 °C) is -0.47 ± 0.13.
The like results for GUUCAGCAAUAUUACGAUCU were, in that order, -0.337 ± 0.095 and 0.0505 ± 0.12.
With GUUCAGCAAUAUUACGCCCU, the “self-splicing fitness (ln)” value reads like this: (30 °C) -0.106 ± 0.16; (37 °C) 0.232 ± 0.19.
Regarding GUUCAGCAAUAUUACGCUGC, the “self-splicing fitness (ln)” value (37 °C) was -1.76 ± 0.4.
As to GUUCAGCAAUAUUACGGAAG, the “self-splicing fitness (ln)” value was -0.667 ± 0.088 (30 °C) and 0.566 ± 0.12 (37 °C).
The like results for GUUCAGCAAUAUUACGGCAG were, in that order, -2.82 ± 0.28 and -1.82 ± 0.31.
For the sequence GUUCAGCAAUAUUACGGUAG, the “self-splicing fitness (ln)” value (30 °C) was -2.08 ± 0.078 and the “self-splicing fitness (ln)” value (37 °C) was -0.531 ± 0.093.
The matching figures for GUUCAGCAAUAUUACGGUGG: -2.39 ± 0.18 and -1.96 ± 0.19.
Turning to GUUCAGCAAUAUUACGUAAG, the “self-splicing fitness (ln)” value runs as follows: (30 °C) -0.609 ± 0.061; (37 °C) 0.5 ± 0.083.
As to GUUCAGCAAUAUUACGUAAU, the “self-splicing fitness (ln)” value (30 °C) was determined as 0.434 ± 0.088 and the “self-splicing fitness (ln)” value (37 °C) is 0.484 ± 0.098.
The like results for GUUCAGCAAUAUUACGUACU were, in that order, -1.24 ± 0.1 and 0.162 ± 0.13.
The matching figures for GUUCAGCAAUAUUACGUCCU: -0.606 ± 0.14 and 0.279 ± 0.17.
